Measured values from patent publication US20230158141A1 (YAFEI SHANGHAI BIOLOG MEDICINE SCIENCE AND TECHNOLOGY, published 2023).
Where a chain is given by its changes, count along the chain named.

T1: IL-10R1-Fc (UniProt Q13651 22-235, limits assumed)
T1 sequence (looked up): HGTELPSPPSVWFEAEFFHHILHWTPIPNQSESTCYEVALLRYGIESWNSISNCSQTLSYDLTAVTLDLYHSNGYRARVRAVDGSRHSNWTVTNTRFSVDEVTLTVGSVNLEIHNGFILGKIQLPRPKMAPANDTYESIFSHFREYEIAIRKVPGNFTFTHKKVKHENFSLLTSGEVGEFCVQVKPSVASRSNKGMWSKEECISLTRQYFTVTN

B1: IL-10 Thr6Cys-R4-7 (ligand, human, UniProt P22301 19-178, looked up)
chain: SPGQGCQSENSCTHFPGNLPNMLRDLRDAFSRVKTFFQMKDQLDNLLLKESLLEDFKGYLGCQALSEMIQFYLEEVMPQAENQDPDIKAHVNSLGENLKTLRLRLRRCHRFLPCENKSKAVEQVKNAFNKLQEKGIYKAMSEFDIFINYIEAYMTMKIRN
modifications: R4-7 on Cys 6
notes: mature
B2: IL-10 Ile69Cys-S48 (ligand, human, UniProt P22301 19-178, looked up)
chain: B1 chain with C6T, I69C
modifications: S48 on Cys 69
notes: mature
B3: IL-10 Gly135Cys-S48 (ligand, human, UniProt P22301 19-178, looked up)
chain: B1 chain with C6T, G135C
modifications: S48 on Cys 135
notes: mature
B4: IL-10 Gln42Cys-S48 (ligand, human, UniProt P22301 19-178, looked up)
chain: B1 chain with C6T, Q42C
modifications: S48 on Cys 42
notes: mature
B5: IL-10 Asn148Cys-R4-18 (ligand, human, UniProt P22301 19-178, looked up)
chain: B1 chain with C6T, N148C
modifications: R4-18 (printed R418) on Cys 148
notes: mature
B6: IL-10 Asp144Cys-R4-11 (ligand, human, UniProt P22301 19-178, looked up)
chain: B1 chain with C6T, D144C
modifications: R4-11 on Cys 144
notes: mature
B7: IL-10 Glu50Cys-R4-12 (ligand, human, UniProt P22301 19-178, looked up)
chain: B1 chain with C6T, E50C
modifications: R4-12 on Cys 50
notes: mature
B8: IL-10 Arg159Cys-S48 (ligand, human, UniProt P22301 19-178, looked up)
chain: B1 chain with C6T, R159C
modifications: S48 on Cys 159
notes: mature
B9: IL-10 Gly135Cys-R4-1 (ligand, human, UniProt P22301 19-178, looked up)
chain: B1 chain with C6T, G135C
modifications: R4-1 on Cys 135
notes: mature
B10: IL-10 Ile69Cys-R4-6 (ligand, human, UniProt P22301 19-178, looked up)
chain: B1 chain with C6T, I69C
modifications: R4-6 on Cys 69
notes: mature
B11: IL-10 Leu19Cys-R4-7 (ligand, human, UniProt P22301 19-178, looked up)
chain: B1 chain with C6T, L19C
modifications: R4-7 on Cys 19
notes: mature
B12: IL-10 Asp41Cys-S48 (ligand, human, UniProt P22301 19-178, looked up)
chain: B1 chain with C6T, D41C
modifications: S48 on Cys 41
notes: mature
B13: IL-10 Asp28Cys-S48 (ligand, human, UniProt P22301 19-178, looked up)
chain: B1 chain with C6T, D28C
modifications: S48 on Cys 28
notes: mature
B14: IL-10 Asp144Cys-S48 (ligand, human, UniProt P22301 19-178, looked up)
chain: B1 chain with C6T, D144C
modifications: S48 on Cys 144
notes: mature
B15: IL-10 Gln38Cys-S48 (ligand, human, UniProt P22301 19-178, looked up)
chain: B1 chain with C6T, Q38C
modifications: S48 on Cys 38
notes: mature
B16: IL-10 Ile158Cys-S48 (ligand, human, UniProt P22301 19-178, looked up)
chain: B1 chain with C6T, I158C
modifications: S48 on Cys 158
notes: mature
B17: IL-10 Asn45Cys-R4-18 (ligand, human, UniProt P22301 19-178, looked up)
chain: B1 chain with C6T, N45C
modifications: R4-18 on Cys 45
notes: mature
B18: IL-10 Asp41Cys-R4-11 (ligand, human, UniProt P22301 19-178, looked up)
chain: B1 chain with C6T, D41C
modifications: R4-11 on Cys 41
notes: mature
B19: IL-10 Ile158Cys-R4-6 (ligand, human, UniProt P22301 19-178, looked up)
chain: B1 chain with C6T, I158C
modifications: R4-6 on Cys 158
notes: mature
B20: IL-10 Arg27Cys-R4-20 (ligand, human, UniProt P22301 19-178, looked up)
chain: B1 chain with C6T, R27C
modifications: R4-20 on Cys 27
notes: mature
B21: IL-10 Glu142Cys-S48 (ligand, human, UniProt P22301 19-178, looked up)
chain: B1 chain with C6T, E142C
modifications: S48 on Cys 142
notes: mature
B22: IL-10 Asp28Cys-R4-11 (ligand, human, UniProt P22301 19-178, looked up)
chain: B1 chain with C6T, D28C
modifications: R4-11 on Cys 28
notes: mature
B23: IL-10 Glu50Cys-S48 (ligand, human, UniProt P22301 19-178, looked up)
chain: B1 chain with C6T, E50C
modifications: S48 on Cys 50
notes: mature
B24: IL-10 Gly17Cys-R4-1 (ligand, human, UniProt P22301 19-178, looked up)
chain: B1 chain with C6T, G17C
modifications: R4-1 on Cys 17
notes: mature
B25: IL-10 Gln42Cys-R4-19 (ligand, human, UniProt P22301 19-178, looked up)
chain: B1 chain with C6T, Q42C
modifications: R4-19 on Cys 42
notes: mature
B26: IL-10 Arg27Cys-S48 (ligand, human, UniProt P22301 19-178, looked up)
chain: B1 chain with C6T, R27C
modifications: S48 on Cys 27
notes: mature
B27: IL-10 Asn148Cys-S48 (ligand, human, UniProt P22301 19-178, looked up)
chain: B1 chain with C6T, N148C
modifications: S48 on Cys 148
notes: mature
B28: IL-10 Glu151Cys-S48 (ligand, human, UniProt P22301 19-178, looked up)
chain: B1 chain with C6T, E151C
modifications: S48 on Cys 151
notes: mature
B29: IL-10 Gln38Cys-R4-19 (ligand, human, UniProt P22301 19-178, looked up)
chain: B1 chain with C6T, Q38C
modifications: R4-19 on Cys 38
notes: mature
B30: IL-10 Glu142Cys-R4-12 (ligand, human, UniProt P22301 19-178, looked up)
chain: B1 chain with C6T, E142C
modifications: R4-12 on Cys 142
notes: mature
B31: IL-10 Arg159Cys-R4-20 (ligand, human, UniProt P22301 19-178, looked up)
chain: B1 chain with C6T, R159C
modifications: R4-20 on Cys 159
notes: mature
B32: IL-10 Asp25Cys-R4-12 (ligand, human, UniProt P22301 19-178, looked up)
chain: B1 chain with C6T, D25C
modifications: R4-12 on Cys 25
notes: mature
B33: IL-10 Leu19Cys-S48 (ligand, human, UniProt P22301 19-178, looked up)
chain: B1 chain with C6T, L19C
modifications: S48 on Cys 19
notes: mature
B34: IL-10 Gly17Cys-S48 (ligand, human, UniProt P22301 19-178, looked up)
chain: B1 chain with C6T, G17C
modifications: S48 on Cys 17
notes: mature
B35: IL-10 Asn45Cys-S48 (ligand, human, UniProt P22301 19-178, looked up)
chain: B1 chain with C6T, N45C
modifications: S48 on Cys 45
notes: mature
B36: IL-10 Asp44Cys-R4-11 (ligand, human, UniProt P22301 19-178, looked up)
chain: B1 chain with C6T, D44C
modifications: R4-11 on Cys 44
notes: mature
B37: IL-10 Asp44Cys-S48 (ligand, human, UniProt P22301 19-178, looked up)
chain: B1 chain with C6T, D44C
modifications: S48 on Cys 44
notes: mature
B38: IL-10 Glu151Cys-R4-12 (ligand, human, UniProt P22301 19-178, looked up)
chain: B1 chain with C6T, E151C
modifications: R4-12 on Cys 151
notes: mature

Biological target: T1, IL-10R1-Fc
Experiment: ELISA, IL-10R1-Fc coated

Row | Binding recovery (>60%) [%] | Decreased fold of binding to ligand after Conjugating with S48 [fold] | Binder
1 | 101 |  | B1
2 |  | 3 | B2
3 |  | 3 | B3
4 |  | 18 | B4
5 | 84.3 |  | B5
6 | 90.5 |  | B6
7 | 99.8 |  | B7
8 |  | 3 | B8
9 | 99.5 |  | B9
10 | 97.3 |  | B10
11 | 95.3 |  | B11
12 |  | 13 | B12
13 |  | 30 | B13
14 |  | 15 | B14
15 |  | 52 | B15
16 |  | 9 | B16
17 | 97.7 |  | B17
18 | 95.2 |  | B18
19 | 81.7 |  | B19

Row | Binding recovery (>60%) [%] | Decreased fold of binding to ligand after Conjugating with S48 [fold] | Binder
20 | 86.6 |  | B20
21 |  | 13 | B21
22 | 92.3 |  | B22
23 |  | 4 | B23
24 | 90.2 |  | B24
25 | 90 |  | B25
26 |  | 12 | B26
27 |  | 10 | B27
28 |  | 13 | B28
29 | 87 |  | B29
30 | 78 |  | B30
31 | 99 |  | B31
32 | 97.1 |  | B32
33 |  | 8 | B33
34 |  | 15 | B34
35 |  | 7 | B35
36 | 92.1 |  | B36
37 |  | 43 | B37
38 | 82.5 |  | B38
